Experimental data reported in patent publication US20230203482A1, “Methods of Rescuing Stop Codons via Genetic Reassignment with ACE-tRNA” (THE WISTAR INSTITUTE OF ANATOMY AND BIOLOGY, priority 2017, published 2023).
Positions count from the first letter of the chain named.

B1: TrpTAGchr17.trna10: ACE-tRNA Trp, TAG suppressor, SEQ ID NO: 33 (nucleic acid)
chain: CGTCGACCTCGTGGCGCAATGGTAGCGCGTCTGACTCTAGATCAGAAGGTTGCGTGTTCAAGTCACGTCGGGGTCA
modifications: expressed or natural sequence
B2: GluTAGchr13.trna2: ACE-tRNA Glu, TAG suppressor, SEQ ID NO: 38 (nucleic acid)
chain: CGTCTCCCACATGGTCTAGCGGTTAGGATTCCTGGTTCTAACCCAGGCGGCCCGGGTTCGACTCCCGGTGTGGGAA
modifications: expressed or natural sequence
B3: GluTAGchr2.trna18: ACE-tRNA Glu, TAG suppressor, SEQ ID NO: 39 (nucleic acid)
chain: B2 chain with C10T, C48T, G70A
modifications: expressed or natural sequence
B4: GluTAGchr1.trna123: ACE-tRNA Glu, TAG suppressor, SEQ ID NO: 40 (nucleic acid)
chain: CGTCTCCCTGGTGGTCTAGTGGCTAGGATTCGGCGCTCTAACCGCCGCGGCCCGGGTTCGATTCCCGGTCAGGGAA
modifications: expressed or natural sequence
B5: GluTAGchr1.trna106: ACE-tRNA Glu, TAG suppressor, SEQ ID NO: 41 (nucleic acid)
chain: B4 chain with C23T
modifications: expressed or natural sequence
B6: GlnTAAchr1.trna17: ACE-tRNA Gln, TAA suppressor, SEQ ID NO: 26 (nucleic acid)
chain: CGTCGGTTCCATGGTGTAATGGTGAGCACTCTGGACTTTAAATCCAGCGATCCGAGTTCGAGTCTCGGTGGAACCT
modifications: expressed or natural sequence
B7: GlnTAAchr6.trna1: ACE-tRNA Gln, TAA suppressor, SEQ ID NO: 27 (nucleic acid)
chain: B6 chain with G24T, G60A, G62A
modifications: expressed or natural sequence
B8: GlnTAAchr6.trna175: ACE-tRNA Gln, TAA suppressor, SEQ ID NO: 25 (nucleic acid)
chain: B6 chain with T7C, T8C, G24T, G60A, G62A, A72G
modifications: expressed or natural sequence
B9: GlnTAAchr17.trna14: ACE-tRNA Gln, TAA suppressor, SEQ ID NO: 28 (nucleic acid)
chain: B6 chain with T8C, G24T, G60A, G62A, A72G
modifications: expressed or natural sequence
B10: GlnTAAchr6.trna63: ACE-tRNA Gln, TAA suppressor, SEQ ID NO: 29 (nucleic acid)
chain: B6 chain with T8C, G24T, G49A, G62A, A72G
modifications: expressed or natural sequence
B11: GlnTAAchr1.trna101: ACE-tRNA Gln, TAA suppressor, SEQ ID NO: 24 (nucleic acid)
chain: B6 chain with G24A
modifications: expressed or natural sequence

Assays:
Format in all cases: cell-based, human
[1] = test system: native stop codons (TAA, TAG, TGA) of HEK293 transcripts; experiment: Ribosome footprint profiling of transcriptome-wide 3′UTRs
From the text: The question was raised whether ACE-tRNAs that show efficacious suppression of premature stop codons may also induce global readthrough of native stop codons. To address this potential “off target” suppression, a transcriptome-wide quantitative profile of actively engaged ribosomes on all cellular transcripts was obtained by generating libraries of ribosome footprints from HEK293 cells expressing exogenous ACE-tRNAs or a control mock plasmid (puc57GG). Streptomycin was removed from the growth media to prevent readthrough artifacts. For comparison, the ribosome footprint library was also generated from cells in the presence or absence of G418 (150 μM, 48 hours). […] Only transcripts with a minimum threshold of 5 RPKM in the coding sequence and 0.5 RPKM in the 3′UTR in two replicate libraries were included for the quantitation comparison (254 transcripts in G418 and 495-748 transcripts in ACE-tRNAs). […] ACE-tRNAs examined here had no detectable change of 3′UTR ribosome density with the exception of ACE-tRNA Gln-UAA and Arg-UGA which induced approximately a 2-fold increase in 3′UTR ribosome density for the cognate stop codon complimentary to the ACE-tRNA anticodon. Understanding the biological significance of 2-fold readthrough of protein stops will require further study, but this effect is substantially lower compared to the 100- to 1000-fold suppression of PTC for the same ACE-tRNA.
Multiple in-frame stop codons are frequently found at the end of genes^37-39 and may cause a minor difference in overall 3′UTR ribosome density for ACE-tRNA and G418 treatment. Ribosome occupancy was examined at each nucleotide in the 3′UTR within a 60 nt region downstream of the stop codons. […] Reads were normalized per total million-mapped reads, compared against control cells, and reported as a log 2-fold change as in panel A. More than 5,200 transcripts were mapped to at least 1 footprint in the region of interest. […] Taken together, the ribosome profiling data argue that efficiency of native stop codon suppression by ACE-tRNAs is generally low, and markedly less than the level of PTC suppression.
Ribosome Footprint Profiling Library preparation. HEK293 cells transiently transfected with ACE-tRNAs and control plasmid (puc57GG) were grown in standard grown media in the absence of Pen-Strep for 48 h. Libraries were prepared as described^55, with a few modifications. Briefly, cells were rapidly cooled by addition of ice-cold PBS, lysed in lysis buffer (20 mM Tris-HCl/pH7.4, 150 mM NaCl, 5 mM MgCl2, 1 mM DTT, 1% (v/v) Triton X-100, and 25 U ml^−1 Turbo DNase I) for 10 min on ice, and triturated with ten times through a 26-G needle. After clearance by centrifugation at 16,000 g for 10 min at 4° C., the lysates were digested with 100 U RNase I (Ambion, USA) per A260 lysate at room temperature for 45 min with gentle agitation prior to adding 200 U RiboLock RNase Inhibitor (Thermo Scientific). Ribosome protected mRNA fragments were then isolated by loading lysates onto a 1M sucrose cushion prepared in modified polysome buffer (20 mM Tris-HCl/pH7.4, 150 mM NaCl, 8.5 mM MgCl2, 0.5 mM DTT, 20 U ml^−1 RiboLock RNase Inhibitor) and centrifugated at 70,000 rpm at 4° C. for 2 h using a Beckmen TLA-110 rotor. Ribosome pellets containing mRNA footprints were extracted using TRIzol and separated on a denaturing 12% polyacrylamide gel containing 8M urea. RNA fragments with sizes ranging from 26 to 34 nt were manually excised from the gel stained with SYBR Gold (Invitrogen) and isolated to generate the ribosome-protected fragment library. Contaminating rRNA fragments depleted using a Ribo-Zero kit (Illumina). 3′ Oligonucleotide adaptor ligation, reverse transcription, circularization, and secondary rRNA depletion using biotinylated rRNA depletion oligos (Table 9) were performed as described^55. Libraries were barcoded using indexing primers for each sample during PCR amplification. […]

NLuc-UAG PTC = experiment: NanoLuc nonsense reporter screen (all-in-one HTC plasmid), TAG/UAG PTC, HEK293 cells
From the text: (§1) In order to enable the identification of the nucleotide composition and functional ability to suppress nonsense codons by new types of tRNA, an All-In-One Plasmid With A One Pot Cloning Reaction was invented for High Throughput Cloning FIG. 11. This approach enables the facile investigation of ACE-tRNA activity via luciferase activity in a standard 96 well format. Briefly, synthetic nucleotide sequences encoding for tRNA are ligated into the NanoLuc Reporter plasmid, with an example of the TGA nonsense reporter plasmid variant shown in FIG. 11. […] and TAG (amber) stop codon rescue vectors have been successfully designed and implemented in FIGS. 16-19. The benefits are the approach is that DNA oligos encoding for tRNA libraries can be ligated in the NanoLuc reporter plasmid with the presence of the restriction enzyme and ligase with the reaction pushed to nearly 100% incorporation of tRNA insert (FIG. 11)-thus the ‘one-pot’ designation. The reaction is transformed into E. coli, with the resultant cDNA purified by standard methods. Another benefit of the invented method is that the tRNA and reporter gen are within the single expression cassette, therefore lowering biological variability and improving data quality obtaining in resulting screens of tRNA suppression activity. The purified cDNA plasmids are then screened in high-throughput 96 well format for their ability to repair nonsense codons by inferred luciferase activity. The approach is suitable for the high-throughput screening of hundreds to thousands of tRNA for novel therapeutic activity.
(§2) The rationale of this study is rooted in the observation that there are multiple tRNA genes with unique sequences (isodecoders) for a given cognate amino acid (isoacceptors), leading to >400 tRNAs annotated in the human genome (http:lowelab.ucsc.edu/GtRNAdb/)^28, 29. First, tRNA genes were examined to identify individual ACE-tRNAs that retain suppression efficacy of PTCs in mammalian cells. In order to maximize sequence coverage, an all-in-one cDNA plasmid was generated that supports both high-throughput cloning (HTC) of ACE-tRNAs and quantitative measurement of PTC suppression using luminescence following delivery to mammalian cells, FIG. 21B. ACE-tRNA sequences were cloned as DNA oligos into the HTC plasmid using Golden Gate cloning^30 paired with ccdB negative selection^31. This strategy produced ˜100% cloning efficiency. ACE-tRNA suppression efficiency was read out from a split NanoLuc luciferase (NLuc) NanoBiT platform whereby the PTC of interest (UGA, UAA, or UAG) was introduced in-frame at the junction between the large bit and small bit domains, FIG. 21B^32, using a 96-well format and normalized to background obtained in NLuc-PTC expressing cells. Twenty-one glycine ACE-tRNAs were first evaluated for suppression of the UGA PTC, FIG. 22, top left, column 1 (violet). […] Given the high sequence conservation among the Gly-tRNAs screened for anti-codon tolerance (FIG. 27), it would be difficult to predict de novo which tRNA would be most amenable to anticodon-editing.
(§3) The parent plasmid used was pcDNA3.1(+). The cDNA encoding pNLuc was Gibson Assembled (New England Biolabs, USA) into restriction sites HindIII and XhoI. A glycine (codon gga), tryptophan ([…]), amber (tag), opal (tga) and ochre (taa), were added to amino acid position 160 during cDNA per. The pcDNA3.1(+) polyA sequence was replaced for one with no BbsI restriction sites using per based Gibson Assembly. The high throughput ACE-tRNA Golden Gate cloning site was generated by first inserting the 5′ leader sequence of the human tRNA^Tyr gene (bold) with a T7 promoter sequence upstream (italics)
(§4) tRNA gene sequences were obtained from the tRNA database tRNAscan-SE (http://gtrnadb.ucsc.edu/index.html; PMID: 26673694). […]

NLuc-UAA PTC = experiment: NanoLuc nonsense reporter screen (all-in-one HTC plasmid), TAA/UAA PTC, HEK293 cells; conditions: Table 3, Gln TAA
From the text: as §1, §2, §3, §4

Molecule | Ranking (NLuc-UAG PTC; Table 5, Glu TAG) | Ranking (NLuc-UAA PTC) | further results
CN[C@@H]1[C@@H](O)[C@@H](O[C@@H]2[C@@H](O)[C@H](O[C@H]3O[C@H]([C@@H](C)O)[C@@H](O)[C@H](O)[C@H]3N)[C@@H](N)C[C@H]2N)OC[C@]1(C)O [G418, reference compound] |  |  | ribosome occupancy at each nucleotide in the 3′UTR downstream of stop codons ([1]; HEK293, log 2-fold change versus control): no observable change of ribosome occupancy; change of 3′UTR ribosome density versus control ([1]; HEK293, G418 150 μM, 48 hours, cognate stop codon group): no observable effect
B1 |  |  | Ranking (NLuc-UAG PTC; Table 4, Trp TAG): #1
B2 | #1 |  | 
B3 | #2 |  | 
B4 | #3 |  | 
B5 | #4 |  | 
B6 |  | #3 | 
B7 |  | #4 | 
B8 |  | #2 | 
B9 |  | #5 | 
B10 |  | #5.2 | 
B11 |  | #1 | 
